Results: PMC4636328, “Two Polyhydroxyalkanoate Synthases from Distinct Classes from the Aromatic Degrader Cupriavidus pinatubonensis JMP134 Exhibit the Same Substrate Preference” (PLoS ONE, 2015)

B1: PhaC1 (Cupriavidus pinatubonensis JMP134) (protein)
chain: MATGKGAAASSTEGKSQPFKFPPGPLDPATWLEWSRQWQGPEGNGGTVPGGFPGFEAFAASPLAGVKIDPAQLAEIQQRYMRDFTELWRGLAGGDTESAGKLHDRRFASEAWHKNAPYRYTAAFYLLNARALTELADAVEADPKTRQRIRFAVSQWVDAMSPANFLATNPDAQNRLIESRGESLRAGMRNMLEDLTRGKISQTDETAFEVGRNMAVTEGAVVFENEFFQLLQYKPLTDKVYTRPLLLVPPCINKFYILDLQPEGSLVRYAVEQGHTVFLVSWRNPDASMAGCTWDDYIENAAIRAIEVVRDISGQDKINTLGFCVGGTIISTALAVLAARGEHPVASLTLLTTLLDFTDTGILDVFVDEPHVQLREATLGGASGGLLRGVELANTFSFLRPNDLVWNYVVDNYLKGNTPVPFDLLFWNGDATNLPGPWYCWYLRHTYLQNELKEPGKLTVCNEPVDLGAINVPTYIYGSREDHIVPWTAAYASTALLKNDLRFVLGASGHIAGVINPPAKKKRSHWTNDALPESAQDWLAGAEEHHGSWWPDWMTWLGKQAGAKRAAPTEYGSKRYAAIEPAPGRYVKAKA
notes: full length (591 residues), C-terminal His6 tag, pET28a, E. coli BL21(DE3), Ni-NTA purified, about 65 kDa
B2: PhaC2 (Cupriavidus pinatubonensis JMP134) (protein)
chain: MTTAVGTRTLAKTTKKAKKPAASAVAPEAIVDSAPAMTGPNPFVGLRPEDMVSTAQQIGAQCVQEPTLLLQQQTKLAQDLFAVVDGSAPPPCTRDRRFGDPAWQDNPVYRMALQGYQAWRDALTGFVTGSVMDGRSKERAQYFTDLLIDAVAPTNTLLGNPAALRKTFESGGLNLVSGLVNLLTDTLTNQGMPSQVDKSAFRIGKDLAATPGAVVFRNDVLELIQYTPTTANVHARPQLIVPPQVNKFYVFDLSQGKSMVEYLVRNEMQVFMVSWRNPTTLHRDWNLDTYVGALIEAIHAIRDITGSPDVNLHGACSGAMTMSALMGYCAARGEKLVNAATLMVSVFGLDSQSQLGLFATPEAIDAARQGSQARGVLDGGELGRVFAWMRPNDLVWNYWVNNYLLGKAPPAFDILYWNNDTTRLPAGLHGQLLDMLTLNQLSTPGALRVLGQPIDLSAVDCDKYVLAGMTDHITPWKGVYRSVRAFGGKTEFVLSSSGHVQSLINPPGNAKAKFFLNDAQMADPEAWLEGATVTPSSWWEHWSEWLKTRSGPLNAAPSRLGSDRHAPCADAPGRYVTEA
notes: full length (579 residues), C-terminal His6 tag, pET28a, E. coli BL21(DE3), Ni-NTA purified, about 65 kDa
B3: PhaC1Pa (Pseudomonas aeruginosa PAO1) (protein)
chain: MSQKNNNELPKQAAENTLNLNPVIGIRGKDLLTSARMVLLQAVRQPLHSARHVAHFSLELKNVLLGQSELRPGDDDRRFSDPAWSQNPLYKRYMQTYLAWRKELHSWISHSDLSPQDISRGQFVINLLTEAMSPTNSLSNPAAVKRFFETGGKSLLDGLGHLAKDLVNNGGMPSQVDMDAFEVGKNLATTEGAVVFRNDVLELIQYRPITESVHERPLLVVPPQINKFYVFDLSPDKSLARFCLRNGVQTFIVSWRNPTKSQREWGLTTYIEALKEAIEVVLSITGSKDLNLLGACSGGITTATLVGHYVASGEKKVNAFTQLVSVLDFELNTQVALFADEKTLEAAKRRSYQSGVLEGKDMAKVFAWMRPNDLIWNYWVNNYLLGNQPPAFDILYWNNDTTRLPAALHGEFVELFKSNPLNRPGALEVSGTPIDLKQVTCDFYCVAGLNDHITPWESCYKSARLLGGKCEFILSNSGHIQSILNPPGNPKARFMTNPELPAEPKAWLEQAGKHADSWWLHWQQWLAERSGKTRKAPASLGNKTYPAGEAAPGTYVHER
notes: full length, C-terminal His6 tag, pET28a, E. coli BL21(DE3), Ni-NTA purified

Key:
purified protein [1] = substrate: C[C@@H](O)CC(=O)SCCNC(=O)CCNC(=O)[C@H](O)C(C)(C)COP(=O)(O)OP(=O)(O)OC[C@H]1O[C@@H](n2cnc3c(N)ncnc32)[C@H](O)[C@@H]1OP(=O)(O)O; test: purified protein; type: biochemical, Cupriavidus pinatubonensis; conditions: 50 mM PBS, pH 7.5, 20 mM MgCl2, 0.5 mM DTNB, R/S substrate mixture, R isomer counted
purified protein [2] = substrate: CCCCC[C@@H](O)CC(=O)SCCNC(=O)CCNC(=O)[C@H](O)C(C)(C)COP(=O)(O)OP(=O)(O)OC[C@H]1O[C@@H](n2cnc3c(N)ncnc32)[C@H](O)[C@@H]1OP(=O)(O)O; test: purified protein; type: biochemical, Pseudomonas aeruginosa; conditions: 50 mM PBS, pH 7.5, 20 mM MgCl2, 0.5 mM DTNB, R/S substrate mixture, R isomer counted

| Protein | Km (purified protein [1]) | Vmax (purified protein [1]) | kcat (purified protein [1]) | kcat/Km (purified protein [1]) | Km (purified protein [2]) | Vmax (purified protein [2]) | kcat (purified protein [2]) | kcat/Km (purified protein [2]) |
| --- | --- | --- | --- | --- | --- | --- | --- | --- |
| B1 | 45.46 ± 6.02 µM | 38.3 µM/min | 0.664 ± 0.0352 s⁻¹ | 14700 ± 3170 M⁻¹ s⁻¹ |  |  |  |  |
| B2 | 115.93 ± 9.15 µM | 1.74 µM/min | 0.0625 ± 0.000333 s⁻¹ | 533 ± 33.3 M⁻¹ s⁻¹ |  |  |  |  |
| B3 |  |  |  |  | 67.28 ± 12.86 µM | 39 µM/min | 0.94 ± 0.0883 s⁻¹ | 13800 ± 4170 M⁻¹ s⁻¹ |
